How the values were obtained:
[1] = biological target: the molecule itself; assay: SEC; Superose 12, 20°C, 20 mM sodium phosphate, 150 mM NaCl, pH 7.0; each variant injected at 500 µM in 100 µl, alone or preincubated and injected together
[2] = biological target: the molecule itself; assay: SEC; Rs against protein concentration in the eluting peak; monomer-dimer equilibrium fitted (dimer to monomers); the text names size exclusion chromatography and light scattering

B1: mature ectodomain of ICA512 (ME ICA512), wild type, residues 470 to 558 (domain or fragment, human, UniProt Q16849 470-558, looked up)
chain: EYGYIVTDQKPLSLAAGVKLLEILAEHVHMSSGSFINISVVGPALTFRIRHNEQNLSLADVTQQAGLVKSELEAQTGLQILQTGVGQRE
notes: the results say 470 to 556; The methods give 470-558, the results 470-556; also called wild-type ME ICA512; wild type variant
**Q.** For B1, which “stoichiometry N” value [1] is on record?
**A.** 2

**Q.** And the Kd [2]?
**A.** 800 nM

Reference: article PMC3174154, “Protein-Protein Interactions in Crystals of the Human Receptor-Type Protein Tyrosine Phosphatase ICA512 Ectodomain” (PLoS ONE, 2011)
